The assay deals with T1, Recombinant Human TNF-α (Strathmann Biotec AG, hTNFa-1000, Lot 090590) (human, UniProt P01375 77-233).
T1 construct: Bought protein; runs at 17.0 kDa on SDS-PAGE; also called cachectin
The experiment in a line: ELISA, hybridoma culture supernatant on coated proteins (cross-reactivity test). In general terms: An ELISA detects its analyte on a solid surface through an enzyme-linked reagent.

T1 sequence (P01375 77-233 limits assumed): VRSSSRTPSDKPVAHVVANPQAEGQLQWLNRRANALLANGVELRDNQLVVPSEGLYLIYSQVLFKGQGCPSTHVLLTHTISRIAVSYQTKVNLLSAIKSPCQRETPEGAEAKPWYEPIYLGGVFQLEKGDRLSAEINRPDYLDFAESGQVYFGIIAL

B1: ETNF-6 antibody (antibody, V domains shown)
VH: EVQLQQSGPELVKPGASVKISCKASGYSFTAFYMHWVKQSHVKSLEWIGRINPYNGATSYNQNFKAKASLTVDKSSSTAYMELHSLTSEDSAVYYCARSEDWDKTMDYWGQGTSVTVS
VL: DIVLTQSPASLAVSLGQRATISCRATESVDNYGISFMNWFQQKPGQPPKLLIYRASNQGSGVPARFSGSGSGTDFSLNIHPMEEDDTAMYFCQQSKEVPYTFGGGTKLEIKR
notes: Mouse monoclonal antibody, tested as hybridoma culture supernatant; also called ETNF 6 monoclonal antibody
On to B1, for which the binding result was “binds”.

For the origin of these results see patent WO2007088823A1 (dated 2007).
